Test results reported in patent US6485937.

Biological target: FLAG-epitope tagged HIV tat interacting protein of 30 kDa (f-TIP30) (human (isolated from HeLa cells)) (UniProt Q9BUP3)
Assay: affinity chromatography of B. mori fat bodies extract, SDS-PAGE of the unbound fraction; the filing puts this down to saturated beads

UniProt Q9BUP3, sequence (Q9BUP3 other isoform, or with tags, fused parts or gaps limits assumed): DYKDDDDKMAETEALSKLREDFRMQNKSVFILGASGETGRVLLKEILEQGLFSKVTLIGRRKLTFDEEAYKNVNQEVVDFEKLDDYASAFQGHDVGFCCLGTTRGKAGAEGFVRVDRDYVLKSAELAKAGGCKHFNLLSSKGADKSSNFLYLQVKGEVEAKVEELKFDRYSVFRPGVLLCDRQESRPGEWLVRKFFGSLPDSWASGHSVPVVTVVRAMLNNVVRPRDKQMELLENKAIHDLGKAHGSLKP

M2-Agarose resin (Sigma) (antibody)
share of expressed protein remaining in the unbound fraction: > 30%
